In patent US20130209439A1, “INHIBITORS OF PDE4 BINDING TO HSP20” (THE UNIVERSITY COURT OF THE UNIVERSITY OF GLASGOW, priority 2010, published 2013):
One block for each binder: values may come before it.

B1: His-HSP20 (purified recombinant His-tagged HSP20) (other)
chain: MEIPVPVQPSWLRRASAPLPGLSAPGRLFDQRFGEGLLEAELAALCPTTLAPYYLRAPSVALPVAQVPTDPGHFSVLLDVKHFSPEEIAVKVVGEHVEVHARHEERPDEHGFVAREFHRRYRLPPGVDPAAVTSALSPEGVLSIQAAPASAQAPPPAAAK
notes: Expressed in E. coli BL21 from pET28c and purified on nickel; also called HSP20-His; HSP20-6His; not shown: His tag from the pET28c vector

What was measured:
[1] = target: T1, GST alone (UniProt P08515 1-218 = GST); assay: GST pull-down with purified recombinant proteins, immunoblot
T1 construct: Control of the pull-down
Protocol: (§1) GST-PDE4 fusions proteins (500 μl of 2 μM) were mixed with 100 μl slurry of 50% (v/v) PBS-washed Glutathione beads for 2 h at 4° C. The beads were pelleted by centrifugation (14,000 g, 1 min) and washed twice with PBS containing 1% Triton X-100 before the addition of equal molar amounts of […] fusion protein in a 1 mL solution of PBS and Triton X-100 containing 5 mM dithiothreitol. After a 2 h incubation at 4° C. the beads were collected and washed three times with PBS and eluted in 100 μl of 2× Laemmli buffer. Eluates were resolved by SDS-PAGE, and the HSP20-His fusion proteins were detected by immunoblotting.
(§2) To evaluate further Hsp20 association with PDE4, we set out to determine whether they interacted directly. In order to do this we expressed Hsp20 and various PDE4 species in E. coli and purified them for use in pull-down assays. […] Additionally, we performed the converse experiment and first did pull-downs of HSP20, using its His tag, and then tested for co-purification of PDE4 species.

[2] = target: B1; assay: GST pull-down with purified recombinant proteins, immunoblot (data not shown)
Protocol: as §1, §2

[3] = target: T2, HSP20, wild type, transfected into HEKB2 / HEK293 cells (human, UniProt O14558 1-160); assay: co-immunopurification with HSP20 from co-transfected HEKB2 cells, Western blot
T2 construct: Expressed from pcDNA6.2-Hsp20 (Gateway cloning into pcDNA6.2/V5-DEST); Immunopurified from cell lysates; also called HSP20 wt
T2 sequence: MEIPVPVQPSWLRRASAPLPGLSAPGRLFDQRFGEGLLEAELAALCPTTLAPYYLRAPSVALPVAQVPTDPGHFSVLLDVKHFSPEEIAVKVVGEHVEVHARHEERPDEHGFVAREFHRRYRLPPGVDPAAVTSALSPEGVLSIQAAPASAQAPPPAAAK
Protocol: HEK293B2 cells are a stable cell line overexpressing the GFP-tagged β₂AR were cultured as previously described⁴⁸. HEK293B2 cells were transiently transfected with wild type HSP20 or a phosphorylation defective HSP20 (S16A) or a phosphorylation mimic HSP20 (S16D). […] Cell lysis, immunopurification and western blotting was done as described before by us in some detail⁴⁸. Briefly, HEK 293 cells were transiently transfected with wild-type HSP20 by using Polyfect Transfection Reagent (Qiagen). […] Control and treated transfected HEK 293 cells were then washed thrice with ice cold PBS (phosphate buffered saline) before cellular lysates were prepared. Cellular lysates were prepared in lysis buffer containing 25 mM Hepes, pH 7.5, 2.5 mM EDTA, 50 mM NaCl, 50 mM NaF, μM sodium pyrophosphate, 10% (v/v) glycerol, 1% (v/v) Triton X-100 and Complete™ EDTA-free protease inhibitor cocktail tablets (Roche). Protein concentration of lysates were determined using the Bradford assay and all samples were equalised for protein concentration. […] Antibodies were used to detect phospho-proteins and native proteins in lysates from control and treated cells
As before, we immunopurified HSP20 and blotted for the presence of transfected isoforms (FIG. 38).

T1 sequence (P08515 whole entry): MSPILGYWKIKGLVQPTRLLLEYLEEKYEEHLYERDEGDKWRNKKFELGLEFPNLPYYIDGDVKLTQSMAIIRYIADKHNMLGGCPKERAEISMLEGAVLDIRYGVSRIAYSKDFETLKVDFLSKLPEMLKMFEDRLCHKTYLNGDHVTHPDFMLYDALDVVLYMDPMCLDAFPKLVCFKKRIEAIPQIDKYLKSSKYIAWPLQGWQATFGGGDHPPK

Binder: B1
binding result [1]: no binding

binding result [2]: binds
B2: GST-PDE4D5 (enzyme)
chain: MAQQTSPDTLTVPEVDNPHCPNPWLNEDLVKSLRENLLQHEKSKTARKSVSPKLSPVISPRNSPRLLRRMLLSSNIPKQRRFTVAHTCFDVDNGTSAGRSPLDPMTSPGSGLILQANFVHSQRRESFLYRSDSDYDLSPKSMSRNSSIASDIHGDDLIVTPFAQVLASLRTVRNNFAALTNLQDRAPSKRSPMCNQPSINKATITEEAYQKLASETLEELDWCLDQLETLQTRHSVSEMASNKFKRMLNRELTHLSEMSRSGNQVSEFISNTFLDKQHEVEIPSPTQKEKEKKKRPMSQISGVKKLMHSSSLTNSSIPRFGVKTEQEDVLAKELEDVNKWGLHVFRIAELSGNRPLTVIMHTIFQERDLLKTFKIPVDTLITYLMTLEDHYHADVAYHNNIHAADVVQSTHVLLSTPALEAVFTDLEILAAIFASAIHDVDHPGVSNQFLINTNSELALMYNDSSVLENHHLAVGFKLLQEENCDIFQNLTKKQRQSLRKMVIDIVLATDMSKHMNLLADLKTMVETKKVTSSGVLLLDNYSDRIQVLQNMVHCADLSNPTKPLQLYRQWTDRIMEEFFRQGDRERERGMEISPMCDKHNASVEKSQVGFIDYIVHPLWETWADLVHPDAQDILDTLEDNREWYQSTIPQSPSPAPDDPEEGRQGQTEKFQFELTLEEDGESDTEKDSGSQVEEDTSCSDSKTLCTQDSESTEIPLDEQVEEEAVGEEEESQPEACVIDDRSPDT
notes: Expressed in E. coli and purified; Printed both GST-PDE4D5 and PDE4D5-GST; also called PDE4D5-GST; not shown: glutathione-S-transferase (GST) tag

binding result [3]: binds
B3: PDE4D5 (transfected into HEKB2 / HEK293 cells) (enzyme)
chain: MAQQTSPDTLTVPEVDNPHCPNPWLNEDLVKSLRENLLQHEKSKTARKSVSPKLSPVISPRNSPRLLRRMLLSSNIPKQRRFTVAHTCFDVDNGTSAGRSPLDPMTSPGSGLILQANFVHSQRRESFLYRSDSDYDLSPKSMSRNSSIASDIHGDDLIVTPFAQVLASLRTVRNNFAALTNLQDRAPSKRSPMCNQPSINKATITEEAYQKLASETLEELDWCLDQLETLQTRHSVSEMASNKFKRMLNRELTHLSEMSRSGNQVSEFISNTFLDKQHEVEIPSPTQKEKEKKKRPMSQISGVKKLMHSSSLTNSSIPRFGVKTEQEDVLAKELEDVNKWGLHVFRIAELSGNRPLTVIMHTIFQERDLLKTFKIPVDTLITYLMTLEDHYHADVAYHNNIHAADVVQSTHVLLSTPALEAVFTDLEILAAIFASAIHDVDHPGVSNQFLINTNSELALMYNDSSVLENHHLAVGFKLLQEENCDIFQNLTKKQRQSLRKMVIDIVLATDMSKHMNLLADLKTMVETKKVTSSGVLLLDNYSDRIQVLQNMVHCADLSNPTKPLQLYRQWTDRIMEEFFRQGDRERERGMEISPMCDKHNASVEKSQVGFIDYIVHPLWETWADLVHPDAQDILDTLEDNREWYQSTIPQSPSPAPDDPEEGRQGQTEKFQFELTLEEDGESDTEKDSGSQVEEDTSCSDSKTLCTQDSESTEIPLDEQVEEEAVGEEEESQPEACVIDDRSPDT
